The supplement of paper PMC6755084

Tested on: F1*subA RNA substrate (template-directed ligation)
Assay: fraction ligated after 30 min (ligated reads / total reads); higher = more ligase activity; sequences stand for … in GAGACCGCAACTGAAAAGTTGT…TTTCTGCACGTAGAAGCAAAAGGC
Conditions: 42 °C, parent ribozyme: minF1
Protocol: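 Chip-synthesised pool of minF1 ligase ribozyme variants (single and double substitutions, single to quadruple deletions, bulge and P2 designed variants) was transcribed with T7 and reacted as a pool with excess substrate F1*subA for 30 min at 42 C in 50 mM EPPS pH 8.5, 25 mM MgCl2. Ligated and unligated RNAs were separated by PAGE, barcoded by RT and deep sequenced; fraction ligated = ligated reads / total reads, relative activity = FL / FL of wild-type minF1 (0.76); sequencing FL correlated with PAGE (R2 = 0.98). Sequences are the DNA template of the ribozyme.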

Row | Sequence | fraction ligated
1 | ATCAGAAATGGATGGGTT [4d310] | 0.0014
2 | TATCAGAAATGGTGGGTTG [3d372] | 0.000922
3 | TATCAGAAATGATGGGTTG [3d366] | 0.000941
4 | TATCAGAATGGATGGTTG [4d1041] | 0.00128
5 | TATCAGAAATGGATGGTTA [3d377] | 0.00122
6 | TATCAGAAATGATGGGTT [4d1093] | 0
7 | TATCAGAATGGATGGGTT [4d1042] | 0.00126
8 | TATCAGAAATGGATGGTTG [3d378] | 0.00121
9 | TATCAGAAAGGATGGGTT [4d1070] | 0.00116
10 | TATCAGAAATGGATGGGTT [s45 (=3d379)] | 0.00181
11 | TATCAGAAATGATGGTTG [4d1092] | 0.00043
12 | TATCAGAAATGGATGGGTT [3d379] | 0.00181
13 | TATCAGAAATGGAGGGTTG [3d376] | 0.00056
14 | TATCAGAAAGGATGGTTG [4d1069] | 0.000981
15 | ATCAGAAATGGATGGTTG [4d309] | 0.000441
